The values below come from publication PMC8541144, “Synthesis, Characterization and In Vitro Evaluation of Hybrid Monomeric Peptides Suited for Multimodal Imaging by PET/OI: Extending the Concept of Charge—Cell Binding Correlation” (Pharmaceuticals, 2021).

Molecules are shown by their SMILES.

A short description of series [1]: LogD determination: partition between 1-octanol and phosphate buffer pH 7.4. The procedure: In the following, the lipophilicity of the labeled conjugates was investigated to get a first idea of the potential excretion pathway of the agents during an in vivo application. The logD values were determined by partition experiments between n-octanol and aqueous solution at pH 7.4.
The mixtures were intensively shaken for 5 min on a vibrating plate. After subsequent centrifugation at 13,000 rpm for 5 min, 125 µL were taken from each phase and measured in a γ-counter. The logD values were calculated from three or four independent experiments, each performed in triplicate.

The nature of series [2]: Photophysical properties (absorbance and emission measurements). The class given is physicochemical. As to conditions: PBS, 1 × 10^−5 mol × L^−1. The procedure: Following the synthesis of the target compounds, their photophysical properties were determined. Here, a possible negative influence of the conjugation of the different MIUs to the corresponding peptidic structures on the absorbance coefficients, or the absorption or emission wavelengths should be ruled out. In Table 2, the results of these evaluations are reported for the MIU-peptide-bioconjugates 7 a-c, 8 a-c and 9 a-c as well as for the MIUs 7-9. As expected, no significant loss or shift of fluorescence properties of the final compounds compared to their imaging units before conjugation was observed. This is in line with the earlier observation for PESIN homodimer-MIU-conjugates where an influence of dye or MIU bioconjugation on fluorescence quantum yields and other photophysical properties could be ruled out.
For HPLC chromatography, a Dionex UltiMate 3000 system was used together with Chromeleon Software (Version 6.80). For semipreparative analyses, a Chromolith (RP-18e, 100–10 mm, Merck, Germany) column was used. For radioanalytical use, a Dionex UltiMate 3000 system equipped with a Raytest GABI Star radioactivity detector was used together with a Chromolith Performance (RP-18e, 100–4.6 mm, Merck, Germany) column. All operations were performed with a flow rate of 4 mL/min using H2O + 0.1% TFA and MeCN + 0.1% TFA as solvents. HR-ESI (high-resolution Electrospray Ionization) and MALDI (Matrix-Assisted Laser Desorption/Ionization) spectra were obtained with Finnigan MAT95Q and Bruker Daltronics Microflex spectrometers, respectively. γ-counting was performed using a 2480 Wizard gamma counter system from Perkin Elmer (Rodgau, Germany). For absorbance and emission measurements, a Tecan Infinite M200 Microplate reader together with a Nunc Micro-Well 96 solid plate from ThermoFisher (Dreieich, Germany) was used. Confocal fluorescence microscopy was performed on a Leica TCS SP8 confocal microscope with lasers at λ = 405, 488, 552 and 638 nm. Overlays of microscopies were generated directly with the operating software or afterwards using FIJI software (V1.50e).

In another series the target is T1, GRPR (Homo sapiens, UniProt P30550).
T1 construct: host or cells: HEK-293 (HEK-GRPR), stably transfected
T1 sequence (P30550 whole entry, species assumed): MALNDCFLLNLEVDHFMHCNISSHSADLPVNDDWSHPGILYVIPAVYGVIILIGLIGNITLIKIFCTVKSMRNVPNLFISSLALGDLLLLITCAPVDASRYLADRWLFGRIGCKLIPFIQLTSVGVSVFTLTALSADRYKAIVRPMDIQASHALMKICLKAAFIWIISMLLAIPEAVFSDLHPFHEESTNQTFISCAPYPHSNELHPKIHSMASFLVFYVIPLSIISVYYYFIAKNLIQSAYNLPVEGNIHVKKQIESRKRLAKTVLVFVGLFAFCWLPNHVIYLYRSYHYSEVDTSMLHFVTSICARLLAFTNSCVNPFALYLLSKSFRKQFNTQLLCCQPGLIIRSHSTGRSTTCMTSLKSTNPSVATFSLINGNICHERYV
Briefly: Competitive displacement assay on stably GRPR-transfected HEK-293 cells, [125I]I-Tyr4-bombesin as competitor. Format: binding. As to conditions: GRPR-expressing HEK cells, mean ± SD. As to the method: Each compound was evaluated at least three times, each experiment being performed in triplicate. […] The respective cells were harvested and re-suspended in the binding buffer to give a cell concentration of 2 × 10^6/mL. […] Using a Millipore MultiScreen disposable punch and a Millipore MultiScreen punch kit, the filters of the well plate were collected in γ-counter tubes separately and measured by γ-counting.

As to `CSCC[C@H](NC(=O)[C@H](CC(C)C)NC(=O)[C@H](Cc1c[nH]cn1)NC(=O)CNC(=O)[C@@H](NC(=O)[C@H](C)NC(=O)[C@H](Cc1c[nH]c2ccccc12)NC(=O)[C@H](CCC(N)=O)NC(=O)CCOCCOCCOCCOCCNC(=O)CCCN1C(=O)CC(SC[C@H](NC(=O)[C@H](CCCCNC(=O)c2ccc(C3=C(/C=C/C4=[N+](CCCCS(=O)(=O)[O-])c5ccc6ccccc6c5C4(C)C)CCC/C3=C\C=C3\N(CCCCS(=O)(=O)O)c4ccc5ccccc5c4C3(C)C)cc2)NC(=O)CC[C@H](C(=O)O)N2CCN(CC(=O)O)CCN(CC(=O)O)CC2)C(N)=O)C1=O)C(C)C)C(N)=O` (stereo partly drawn) [9 a, BBN7-14-cyanine-NODA-GA], the logD in series [1] was -1.45 ± 0.06. In series [2], the “λmax(abs)” value is 724/800. In series [2] (λex = 650 nm), the “Stokes Shift” value stood at 9 nm and the “λmax(em)” value is 809 nm.
At GRPR, `CSCC[C@H](NC(=O)[C@H](CC(C)C)NC(=O)[C@H](Cc1c[nH]cn1)NC(=O)CNC(=O)[C@@H](NC(=O)[C@H](C)NC(=O)[C@H](Cc1c[nH]c2ccccc12)NC(=O)[C@H](CCC(N)=O)NC(=O)CCOCCOCCOCCOCCNC(=O)CCCN1C(=O)CC(SC[C@H](NC(=O)CNC(=O)CC[C@H](C(=O)O)N2CCN(CC(=O)O)CCN(CC(=O)O)CC2)C(N)=O)C1=O)C(C)C)C(N)=O` (stereo partly drawn) [10 a, BBN7-14-NODA-GA] displayed an IC50 of 19.1 ± 1.44 nM. The compound also gave a logD in series [1] of -3.78 ± 0.04.

Broadly, the logD is the decadic logarithm of the distribution of all forms, ionised or not, between an organic phase and buffer at a given pH. A high value points to a more lipophilic compound. In general, IC50 refers to the concentration that inhibits the measured activity by half. Lower therefore signals greater potency in that assay.
